Data published in article PMC5499575 (Nucleic Acids Research, 2017).

Target: T1, HDA15-GST (Arabidopsis, UniProt Q8GXJ1 1-552)
T1 sequence (looked up): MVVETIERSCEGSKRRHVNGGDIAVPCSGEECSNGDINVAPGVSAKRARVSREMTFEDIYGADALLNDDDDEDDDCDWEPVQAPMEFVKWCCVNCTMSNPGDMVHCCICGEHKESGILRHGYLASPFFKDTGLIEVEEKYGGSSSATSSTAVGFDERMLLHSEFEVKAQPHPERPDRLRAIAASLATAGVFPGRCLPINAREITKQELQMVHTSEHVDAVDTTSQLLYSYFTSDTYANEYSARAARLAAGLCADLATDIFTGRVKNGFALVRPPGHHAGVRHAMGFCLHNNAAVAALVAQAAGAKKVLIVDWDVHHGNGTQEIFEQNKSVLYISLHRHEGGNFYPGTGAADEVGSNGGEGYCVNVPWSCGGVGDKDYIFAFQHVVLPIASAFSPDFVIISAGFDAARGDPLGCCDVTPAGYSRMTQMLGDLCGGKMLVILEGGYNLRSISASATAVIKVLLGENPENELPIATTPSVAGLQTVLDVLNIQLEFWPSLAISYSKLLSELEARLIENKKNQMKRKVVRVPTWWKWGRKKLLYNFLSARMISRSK
Assay: pull-down

binding result: binds
B1: PIF1-His (natural protein, Arabidopsis, UniProt Q8GZM7 1-478, looked up)
chain: MHHFVPDFDTDDDYVNNHNSSLNHLPRKSITTMGEDDDLMELLWQNGQVVVQNQRLHTKKPSSSPPKLLPSMDPQQQPSSDQNLFIQEDEMTSWLHYPLRDDDFCSDLLFSAAPTATATATVSQVTAARPPVSSTNESRPPVRNFMNFSRLRGDFNNGRGGESGPLLSKAVVRESTQVSPSATPSAAASESGLTRRTDGTDSSAVAGGGAYNRKGKAVAMTAPAIEITGTSSSVVSKSEIEPEKTNVDDRKRKEREATTTDETESRSEETKQARVSTTSTKRSRAAEVHNLSERKRRDRINERMKALQELIPRCNKSDKASMLDEAIEYMKSLQLQIQMMSMGCGMMPMMYPGMQQYMPHMAMGMGMNQPIPPPSFMPFPNMLAAQRPLPTQTHMAGSGPQYPVHASDPSRVFVPNQQYDPTSGQPQYPAGYTDPYQQFRGLHPTQPPQFQNQATSYPSSSRVSSSKESEDHGNHTTG
